This passage reports protein production results from a protein production outcome set (Wang et al. 2014).

The nature of the series: label from the status in PepcDB records.
Take “MERLTSPPRLMIVSDLDETMVDHHKDPENLALLRFNSLWEDAYRHDSLLVFSTGRAQTMYKKLRKEKPLLTPDVIITSVGTEIAYGNSMVPDDNWVEILNKKWDRGIVQEETSKFPELTLQGETEQRPHKLSFNIDKSKVKAVTKELSPRLEKRGVDVKFIFSGGNAFDVLAKGGGKGQALAYLLKKLKTEGKLPINTLACGDSGNDTELFTIPNVYGVMVSNAQEELLEWYAENAKDNANIIHASERCAGGITQAIGHFKLGPNLSPRDVSDFLECKADNVNPGHEVVKFFLFYERWRRGEVENCTTYTSSLKASCHPSGVFVHPSGAEKSLRDTIDELGKYYGDKKGKKFRVWTDQVLATDTTPGTWIVKLDKWEQTGDERKCCTTTVKFTSKEGEGFVWEHVQQIWSEETEIKDDSNWII”: the protein production entry is “failed”.

“MERNVTLDFVRGVAILGILLLNISAFGLPKAAYLNPAWYDAITPQDAWTWAFLDLIGQVKFLTLFALLFGAGLQMLLPRGRRWIQSRLTLLVLLGFIHGLLFWDGDILLAYGLVGLGVLLLLGLISDSQTSRAWTPDASAILYEKYWKLHGGVEAISNRADGVGNSLLALGAQYGWQLAGMMLIGAALMRSGWLKGQFSLRHYRRTGFVLVAIGVTINLPAIALQWQLDWAYRWCAFLLQMPRELSAPFQAIGYASLFYGFWPQLSRFKLVLAIACVGRMALTNYLLQTLICTTLFYHLGLFMHFDRLELLAFVIPVWLANILFSVIWLRYFRQGPVEWLWRQLTLRAAGPAISKTSR”: the protein production entry is “failed”.

“MERPLESYKKEAAHAAIAYVQDGMVVGLGTGSTARYAVLELARRLREGELKGVVGVPTSRATEELAKREGIPLVDLPPEGVDLAIDGADEIAPGLALIKGMGGALLREKIVERVAKEFIVIADHTKKVPVLGRGPVPVEIVPFGYRATLKAIADLGGEPELRMDGDEFYFTDGGHLIADCRFGPIGDPLGLHRALLEIPGVVETGLFVGMATRALVAGPFGVEELLP”: the protein production entry was “not failed”.

For “MERQDDPDAIQRLLVPTDLSASALRAFRHAVALARLYDAAIDVLHVIESVPYVALTPTDRLSLGATTLLERRGRRRLRAFLQEGEAAGVQVQSHIMRGAAADQISRFANQGDVDLMVLSAHGSDAEEGPLGPVGTRVLGRVTRPLFLVRASGPSLLGPPDDAA”, the protein production result is reported as “failed”.

On to “MERSEEEIENLWKLQSEVKQRSESVKSIITELEIERGTLKVRALKLKEDSDVLTTWVEMNYLKLTSMDMGRIEEMFEIESEVEGLAGDDAIEDVLRVLEEAAERGELEIGSYLKQVRVLAREQFFLKHLSSFKTQNFHI”, for which the protein production result is listed as “failed”.

In the case of “MERVQRLRLTFGKTGEMTLLSHLDLLRLFERAVRRAHLPIAFSGGFHPSPRISTASALPLGVTSYGEIVDLEFYREVDAQTVLEQLRQQLPQEIPLYGCEVVPLSEPAASQALRAATYELLIRTPEPLERETWEQWLETLRATPEILYELTTKSGKTLEHHHHHH”, the protein production result is recorded as “failed”.

With “MESEKKIAHEIGGVKNDALRFGLHGVKSNIIGSHPLESSYESEKKSKEALKRTVIAHAYGTALPLKMDMDRQILSRFQRPPGPIPSSMLGLEVYTGAVDDFGFEDYLNDPRDSETFKPVDFHHGMEVRLGISKGPIYPSFM”, the protein production entry is “failed”.

As to “MESFNTFVRQYNDQHAEAIAKGELEALAESSSAFIEKASGIKSRFVMNKEGILDPQRMVPYLPERSNDEWSILCEMAVAAAREALQRAGRSAADIDGVIVACSNLQRAYPAIAVEVQAALGIQGYGYDMNVACSSATFGIQAATTAIQTGQARAILMVNPEICTGHLNFRDRDSHFIFGDACTAVIVERADLAVSKHQFDIVSTRLLTQFSNNIRNNFGFLNRADESGIGKRDKLFVQEGRKVFKDVCPMVAELIGEHLAANEIQVAEVKRFWLHQANLNMNLLITRKLLGRDAEAHEAPVILDSYANTSSAGSVIALHKHQDDLPSGAIGVLSSFGAGYSIGSVILRKH”, the protein production result is reported as “failed”.

With “MESGKREQVELMFNNISPKYDLLNRVLSLGIDKIWRKQALNLLKQDKPAHILDVATGTADLAIEAATRLKPTSVVGIDIAEDMLQIGRGKIAKKNLDKIIRLEKGDSEKINFPDNTFDAVIVSFGVRNFEHLEIGLAEIHRVLKPAGSIMVLEFSKPQNAPFKQVYQFYFKNILPTVGKLISKDSAAYTYLPDSVNAFPDGKAFCSILEKTGFTIKHYKPYTFGVCTAYVGKLEHHHHHH”, the protein production result was “failed”.

Turning to “MESSFSFGVILAVLASLIIATNTLVAVAVLLLIHKNDGVSLCFTLNLAVADTLIGVAISGLLTDQLSSPSRPTQKTLCSLRMAFVTSSAAASVLTVMLITFDRYLAIKQPFRYLKIMSGFVAGACIAGLWLVSYLIGFLPLGIPMFQQTAYKGQCSFFAVFHPHFVLTLSCVGFFPAMLLFVFFYCDMLKIASMHSQQIRKMEHAGAMAGGYRSPRTPSDFKALRTVSVLIGSFALSWTPFLITGIVQVACQECHLYLVLERYLWLLGVGNSLLNPLIYAYWQKEVRLQLYHMALGVKKVLTSFLLFLSARNCGPERPRESSCHIVTISSSEFDG”, the protein production result was “failed”.

As to “MESWLFLLLIALIAFVAKNQSLLIASVVVLALKALPNSAKIMSWLSDKGINLGVTIISITILVPIATGQIGLKDLIQSFKTPMGWLGILCGILVAVLSSKGVGLINQSPEITVALVFGTILGVVFLKGIAAGPIIASGMMYVIITTFQAFQH”, the protein production result is recorded as “failed”.

“MESYSQRQDHELQALEAIYGSDFQDLRPDARGRVREPPEINLVLYPQGLAGEEVYVQVELRVKCPPTYPDVVPEIDLKNAKGLSNESVNLLKSHLEELAKKQCGEVMIFELAHHVQSFLSEHNK”: the protein production entry is listed as “not failed”.

Take “METDPDYSMVLLTENFPPYNMAINGKNFAQEDNIDGIAVDIVREMFKRAGIKYSLTLRFPWDRIYKLALEKPGYGVFVTARLAEREDKFKWVGPIGPDDWVLLAKGDSPITLGSLDEAKKYRIGAYKGDAIAEFLGKNGFEADLEHHHHHH”: the protein production result is “failed”.

On to “METKGEPYSEPCEFFNSILTGSVSRKMRLPRMGIRNFIGTSRLHFAKRAFHAQAAVDEDSRYGALLSIKEYPPFTGPGMLDGLLQVNHEFILTQSFTLADKPIAQERITRLQRQIRASDEAGTSVESDINFALDSMLNQEAVFGFHHFSLLCISRDLEGLSRCVSELGACLTDMNINWLREDLNLEAAFWAQLPGNHSYIARKAMLSSSNFSGLSSMHNFASGQAERTHWGLPITILETTSQTPYWFNFHRRDIGHFTVTGPTGSGKTVGLSFLLAQAMRVSPTPRAVFFDKDRGAEIFVRAIGGSYEILSPGTPTGFNPLQLENTGPNREFLQRLLKAMLGGRDRRDFTQEDEDIIERAVVRLMEEPAQQRNLTNLGNLLMGRARADANDLYSRLRPWTEGEKAWLFNAPHDVLSFSGRTVFGFDMTSILGNEELRTPALMYLYHRLDELLDGNPVMFFMDEGWQLLLDETFSAFIVDKMKTIRKLNGIVGFGTQSAADIAKSKVSHTLIEQSSTNIHFPNPRADEESYIKRFGLTVKEYNFIKNTPPEKRTFLIKHGNDSVIARLDLSSMPDLVKVLSGRKETIEECAALREQYGDEPENWLAKFCGWENAELEHHHHHH”, for which the protein production result is reported as “not failed”.
